The record followed here is the NTF2 design screens of Basanta et al. (2020).

A short description of this data set: protease stability score; higher = more stable; yeast display proteolysis, trypsin and chymotrypsin.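 Note: relative to predicted unfolded state with 0 unfolded-like and 1 meaning tenfold more protease.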
“DDHRDRLEHHASEFITAMLTGNWERLYQLVDPHVRLEIHVNGRKQHRVGREEFWTQWQKFVEDFGIDHSHLDRMEVIGNKMHAEFNIRVGDKRFILELHVIIVNGRISEVRVDFR” had a protease stability score of 2.15.

In turn, “KELDEKVDTAIRIFHDVMLTGDEEKLIKLMDPNTRIRYNGRELHGWESHIKLREEELHELGVERVVHIFHNREIRAYDGVADIKGELEIRFNGRTVRHEFRIKFEKVNGRWVVREIEIH” yielded a protease stability score of 1.31.

Regarding “DDEERIWRELLEIWIKLMETGDEDTTRKNADPHAKHILVIGDFTLVLHGWDLTVKFLKELSERMGINHIHVHRVEAINGQVHIDSRLRVGDKDVHTHIRIKIVDGVLKETNLHIK”, the protease stability score came out at 1.62.

“SEEEEIVRHANHLFTHAMNTGDWRLLKELFDPHTKILIDGQEHHGWSIIYRELRHIRIDHVEMRIRSVHTQGNKAHVDGEIIVEGTVNGVTHKTSNRVNLIIRKVDGRWIVESIDIH” gave a protease stability score of 1.55.

Turning to “NEDDHIMEELTRIFIQNLRTGNEEEWAKYADPDTRLDFNGVDIIGRESILHWLKHMLTELRFTKIIFHHINAVNGRIHLDVEQHVEVGDKSQTIRSEIHIRVVNGVIKREYYRYK”, the protease stability score turned out to be 0.092.

With “EEEEQHMKEMAHIFIELMETGDEERLHKYFDPNWRFRIGDKHHHGRETYIHWLHQLGVDKVKVHLRHLDFQGDKLRIDSEREFDGKIEKIDIILIKFNGRWIINEIRVD”, the protease stability score was 1.29.

Take “DEEKRRSHELADLWWEMLETGDWDRTKNLMDPDTRLHIGDKEDHGMENFYRFRKDFESQFPNMRIELKSHRVQGDFFEIKGKINFNGRLVEAEIRVKIVDGRLKEIHVHIK”: the protease stability score stood at 0.821.

The sequence “SEEERRDEHLMRLWVHLLLTGDEDTLKKLADPDARLVVGDKTFHGMEEVSRIMHEFLRRLGIKHFHDLDFKHVRHINGVAHFNGRLHGIQGEFERNTNIEFVVVVVDGRIKSSEIHWH” had a protease stability score of 1.41.

“SEEEHDTRRAIEIFLRIIMTGNEEDFERLFDPDARSEWNGVELHGREIITHIWLEIFDRFPNIKIEVRVERYRIQGEKVDIDMELIFRVGDKEDSRKTRMHVLKVDGKWTVKLFKIK” gave a protease stability score of 2.33.

As to “DEEERLLDHVIKLMLQMHLTGNEEIFLNLADPHAKFYFNGVDLHGMELVSKWESEWLHHIRIRRRHIEDSRIVGDKAHIHVRVDEEIGDKKLDTHYRVDLVVINGRWHSVRIDMR”, the protease stability score came out at 1.25.

“DEHDKLMKDIAKLLLELWKTGDEEIFQHLMDPDTRMDVNGVQLHGMELIVKILRDEIHKIKNVKVLDKRNTVIGDKIHLDVEIVIGDKRIRMKLDVIVVNGRIKVFEIHTE” had a protease stability score of 1.36.

Take “DEDRLREQATNFIEAMQTGDTKRVDEQIDKDAQLVVGEKKYEGREQISTFVKEMHHQFDHVRLQRVTVSGNKVLLDVVMDFNGKDLRINIVIHMNNGKISQVQVDYTNPEDAKTARG”: the protease stability score turned out to be 0.914.

“DEEHEINRRIAEWWLHSVKTGDEESIENNADPNTRIVVNGVHFHGMEESHKWLHEFLRRFKNATLEIHSMEVINGVTHIHGTLVQGDKRIRVHIHVHVINGRIHTISHEHR” showed a protease stability score of 1.27.

The sequence “DEEEELSKIAIRIFLKTLETGDERTLSELMDPHARLVINGREYHGREEASKEWHKWVEHLRVRDIKISSVRINEHELILHEKFEVEVNGRNLKLDVLIIVVKVDGRWVLRTNTIN” yielded a protease stability score of 2.68.

In turn, “HDQDESAKWVIEVLIRASYTGDFDMFIKYFDPNAKSLIDGKTFHGREDLKRHMDRFDHITHVRFHLRDRKMVGDKLIIHGQLEVHGYQGDWEIHMTRDVHIILRKVDGRWHIEELRLE” came in with a protease stability score of 2.18.

“SHEDKLNEEVARLIIHAWKTGNERLMLKLLDPHTRFEQGDKEMVGREHLLEMLRHRLEELGVDHIDFKDYKIDVVDGVLNIYLRIEIEVGDKHIDMIIKVIVLKFDGRWHVHEVRVEER” yielded a protease stability score of 1.5.

“SEEEEIYKRAHKFFADVFLTGNEKELEHMLDPNVRLHVNGQDHHGWTDVFRIFNFLGADHYDVKHLDIQGDKVDLHSEVDINGRTRRIIFHSLKVNGQWKITHVQVD” displayed a protease stability score of 1.24.

“DEEEEHAITFMKILIHLWITGDWETLKRLADPDTKVIERFNGKRVEIHGRELWSKIRKEIIDQLRIRIHPHHVSVVGDKLYSDEHLVFHYNGRDIRLDIHLEMVVVNGRMKHFRFHEE” yielded a protease stability score of 1.06.

“DEEDEHVKKAAEDFLRWWLTGDESRLLELFDPNMLLIIGDKHIHGRESVVHFFSELRERLGIDHIELEDVHIREVNGRAEFHSHILLHINGQKVKVDVRIHFHKVNGRWLFEHEHVEIR” yielded a protease stability score of 1.32.

“DEEKKEQRHFLKKLADSIATGDEESLEKMVDPNAKSVVNGVEQHGMELMVENLREWLERLGVTKISFHEKRFRLIGNKLEVDGTIEVNGKKFESHFIVEKVDGQWRIREIRLH” showed a protease stability score of 0.931.

Turning to “SEEDRDRHKALELIRESSRTGNEELTSRLADPHVRLVFNGRDVHGREEMVRYMHEFGIDHLHIDRLHVQGDKIHIEGSNDWNGVVTELHVLMVKVNGRWRIREVEWR”, the protease stability score amounted to 1.23.

“DEEEKDIRKALEWFWESFKTGDEDSVRKMLDPDTRIIYGDKEHHGRENASRFIHELKRRMGIKHTEIRLNSMEVQGDKVSFYTILILRFDGREIRIETHIEARKVDGRWFTTSIEFH” returned a protease stability score of 1.42.

“SEEEHDVEFVRRLQEEVWHTGDEDKLEELLDPDARAHVNGVTYHGREFVHFFYKRVDHVHHYQIEETRVVGDKLHLISRTDLVINGQRVKTELRWNITKVNGKWRVTEVRID” registered a protease stability score of 1.06.

“SEWEEFMERMLELVIEVMKTGDFDRFRSLFDPHVKIRIIIGDKHHEFHGWLWLRTLIEKMGIDHLQINVRSYRIIGDKLEVDGELLSHYNGRTSHRTVHYHIVIINGRLHHITIEYH” showed a protease stability score of 0.214.

For the sequence “EEDEEHIRKVIETFREMSETGDEDWSERMADPNARLIVGNKEFHGRERFNEWNRELTERIDHFEVRIRDFEIQGDKLILHVRITIIINGKDIETESHIIMKKVDGRWFMHSLHHK”, the protease stability score was 0.752.

In the case of “SDIDELDRELMEHTLRTIRTGDEETVHRLLDPDARTLINGREYHGREWATKMMSDWNRELGIDHLEIKHVDLINGKVRIDVKITVGDKEFHMTMVYNKVNGKWINHSIHIH”, the protease stability score was 0.409.

As to “SERHKDMKRLIDEWRKSYETGDEDQLRRLLDPTTRVDFNGVEYHGRHEAVEIMSQIRVEHIDIRELHVQGNKAEVRVRMHGHFDGQEEEVEFIIYMKKVNGRWVVHQEEHR”, the protease stability score turned out to be 1.16.

“SEDEEHAEFFNRLLAESLMTGDWRTIANLLDPHVRVRVGDKQHHGREQVIHLLTKLLEDWGLERVHIHLRELRVINGRIHTRNELHVGDKTVDVKVHTRKIDGRWVIEEIEFR”: the protease stability score was 1.16.

As for “NEEEEESKFANELWEETVKTGDERLNRSLADPNTRFHINGVDLHGWESMDETARRYKNITVRLHDMRTYNGRVHLDFEMRVGEFTTKVIIIARKFDGRWILKSIIVH”, the protease stability score is 1.2.

Sequence “SQEEQDTEEFLRHLHEALRTGDEKTLRTLIDPHVRLFINGVHLHGREELVRWLKEFVDRLGIDVSTLHIDDMRIIGNFIELDTKIRWKIGDKTEEVETRFIIVKIDGRWYVRQVEMG” had a protease stability score of 2.6.

With “SEDKKATNEASEIIIRLLKTGDEHLANHYIDPNVRMIFENRDVHGRETFEEWMRRVDHFHHYDVRHVHTQGDKINIDSEHNIHINGQEEIKDVYWISTKIDGKWILKSIEVR”, the protease stability score came to 1.28.

“DEDQEEANHLIDLFIASLNTGDWEIIDHMADPHVKFRSVVNGKREKHIGREEMIRWFEEIEERFGYENFHVRYQRFEVQGEKMNTDITIEWNGRRFRSIILLHVFNGKLKSMEIIDI”: the protease stability score amounted to 1.25.

In the case of “DEEDREKDDLLRRFITAIYTGDERAIKEYLDPHVRTVFNGQEKHGREEVTTLVWQIMRELGIKVIRTHDEREQGNKVELHLELFVGNKRLEINVFAEKVDGKWILRQFIIKVD”, the protease stability score was 1.2.

“DEDEESSKLAIEFLLRALITGDEKTMSELLDPNARLVVNGVEIVGMHVIVRHFIEMRLERIHVRIRSWTVFDGRLLNDTELHRHINVNGVEEDRSNRVELFVKKVDGKWKLEMIIIN”: the protease stability score turned out to be 2.63.
